One molecule from patent US12280159B2, “Therapeutic protein-based nanoparticles for treating cancer” (THE REGENTS OF THE UNIVERSITY OF MICHIGAN, priority 2020, dated 2025) can be followed below.

Series [1] deals with draining lymph nodes (F4/80+ macrophages, B220+ B cells, CD11c+ DCs). Further details: species or system C57BL/6 mice. The following applies: mouse, in vivo, sc. As for the experimental part: OVA pNPs delivery to lymph nodes. Next, the pNPs targeting of the draining lymph nodes using AlexaFluor 647-labeled pNPs was evaluated. OVA pNPs of varying PEG/OVA ratio (10, 30, 50%) and size (200 nm, 500 nm) were injected subcutaneously at the tail base of C57BL/6 mice (10 μg OVA/100 μL dose). The inguinal draining lymph nodes were harvested 48 hours after injection. Single-cell suspensions from the draining lymph nodes were prepared and pNPs uptake among the different populations of antigen-presenting cells were analyzed (dendritic cells, macrophages and B cells) using flow cytometry by comparing the MFI values of the cells. […] In the past, many different particle sizes have been studied with respect to their lymphatic drainage. It has been shown that particles exceeding 500 nm can be trapped at the injection site. Nanoparticles smaller than 10 nm, or soluble antigen, diffuse into the lymphatic system easily, but their retention time in the lymph nodes is too short to provide sustained antigen delivery. […] For smaller pNPs sizes, improved uptake is observed for pNP with lower PEG/OVA ratio.

Another series concerns B16F10-OVA melanoma. Put plainly: Therapeutic efficacy in murine B16F10-OVA melanoma model. The series is classed as in vivo, C57BL/6 mice. The following applies: treated days 7 and 14 with CpG. As for the experimental part:
Therapeutic efficacy of pNPs in a model of melanoma. Encouraged by the fact that OVA pNPs with 10% PEG/OVA ratio result in increased OT-I CD8+ cell proliferation in vitro, improved uptake by APCs (both in vitro and in vivo), and enhanced humoral immune response in vivo, a murine model of B16F10-OVA melanoma was employed to evaluate the therapeutic efficacy of pNPs with a PEG/OVA ratio of 10% compared to solute OVA. Tumor-bearing mice were treated with 10% PEG/OVA pNPs or solute OVA (10 μg OVA/100 μL dose), co-administered with CpG (15 μg/dose). Following the regimen shown in FIG. 9A, C57BL/6 mice (10 mice/treatment group) were inoculated with 1×10^5 B16F10-OVA cells in the SC flank on day 0. Treatments with either 10% PEG/OVA pNPs or solute OVA were initiated on day 7 after tumor inoculation. A second treatment was given on day 14. Mice were euthanized after their tumors reached 15 mm in any dimension. […] More than 50% of mice treated with solute OVA were euthanized due to large tumor burden on day 20, and 100% of the mice were euthanized on day 21.

B1: ovalbumin (protein, UniProt P01012 2-386, looked up)
Ovalbumin: GSIGAASMEFCFDVFKELKVHHANENIFYCPIAIMSALAMVYLGAKDSTRTQINKVVRFDKLPGFGDSIEAQCGTSVNVHSSLRDILNQITKPNDVYSFSLASRLYAEERYPILPEYLQCVKELYRGGLEPINFQTAADQARELINSWVESQTNGIIRNVLQPSSVDSQTAMVLVNAIVFKGLWEKAFKDEDTQAMPFRVTEQESKPVQMMYQIGLFRVASMASEKMKILELPFASGTMSMLVLLPDEVSGLEQLESIINFEKLTEWTSSNVMEERKIKVYLPRMKMEEKYNLTSVLMAMGITDVFSSSANLSGISSAESLKISQAVHAAHAEINEAGREVVGSAEAGVDAASVSEEFRADHPFLFCIKHIATNAVLFFGRCVSP
notes: soluble ovalbumin antigen used as control
Consider B1, for which the “MFI of lymph node cells / delivery to draining lymph nodes” value in series [1] is recorded as “not delivered to the lymph nodes efficiently”. In addition, the “mice euthanized due to large tumor burden” value with B16F10-OVA melanoma (day 20) is on record as “More than 50%”. In the series on B16F10-OVA melanoma (day 21), the mice euthanized worked out at 100%. Moreover, the animal survival entry with B16F10-OVA melanoma was “slightly better survival”.
